Measured values as given in the nanobody polyreactivity screen of Harvey et al. (2022).

Test: yeast display, Sf9 membrane polyspecificity reagent, FACS + sequencing; frameworks hold sequencing errors
Summary of the method: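 A synthetic nanobody library was expressed on Saccharomyces cerevisiae BJ5465 by galactose induction for 36–48 hours. The library was stained for 1 hour at 4 °C with 10% biotinylated, detergent-solubilized Sf9 membrane reagent and enriched with streptavidin microbeads before FACS. Low and high (top ~1%) gates were set on anti-HA fluorescence for expression and streptavidin fluorescence for reagent binding, and each polyreactivity label reflects the gate of origin.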

| Sequence | polyreactivity (PSR sort gate) |
| --- | --- |
| QVQLVESGGGLVQAGGSLRLSCAASGSIFYANTLGWYRQAPGTERELVAAINWSGGRTYYADSVKGRFTISRDNAKNTVYLQMNSLKPEDTAVYYCAASATYLYKYPVWGYDYWGQGTQVTVSS | high polyreactivity |
| QVQLVESGGGLVQAGGSLRLSCAASGRTFDFYAMGWYRQAPGKERELVAAISSRGGSTYYADSVKGRFTISRDNAKNTVYLQMNSLKAEDTAVYYCAKDLGYRGRYNYWGQGTQVTVSS | low polyreactivity |
| QVQLVESGGGLVQAGGSLRLTCAASGITFDLNAKGWYRQAPGKERELVAAIFRGGSTYYADSVKGRFTISRDNAKNTVYLQMNSLKPEDTAVYYCAAAYYRVGRAYPHEAYDYWGQGTQVTVSS | low polyreactivity |
| QVQLVESGGGLDLAGGSLRLTCAASGSTFTYYAMGWYRQAPGKERELVAAISWRGASTYYADSVKGRFTISRDNAKNTVYLQMNSLNPEDTAVNYCNAVKQRSSIFDYWGQGTQVTVSS | low polyreactivity |
| QVQLVESGGGLVQAGGSLRLSCVASGRTFFRYAMGWYRQAPGKERELVAVITRGGSTYYADSVKGRFTISRDNAKNTVYLQMNSLKPEDTAVYYCNADGRVQRKYDYWGQGTQVTVSS | high polyreactivity |
| QVQLVESGGGLVQPGGSLRLSCAASGFILYGNAMGWYRQAPGKERELVAAISRRGGSTYYADSVKGRFTISRDNAKNTVYLQMNSLKPEDTAVYYCAKDGPGGGTRIYDYWGQGTQVTVSS | high polyreactivity |
| QVQLVESGGGLVQAGGSLRLSCAASGSIFSYYAMGWYRQAPGKERELVAAISRGGSTYYADSVKGRFTISRDKAKNTVYLQMNSLKPEDTAVYYCNVDSFRYRHTGYGYTRYGYWGQGTQVTVSS | high polyreactivity |
| QVQLVESGGGLVQAGGSLRLSCAASGFTFYWYAMGWYRQAPGKERELVAAITSGGGTTYYADSVKGRFTISRDNAKNTVYLQMNSLKPEDTAVYYCAADSYTYPWIERDYWGQGTQVTVSS | high polyreactivity |
| QDQLVESGGGIVQAGGSLRLSCAASGSTFWHNVMGWYRQAPGKERELVAAISTAGSSTYYADSVKGRFTISRDHAKNTVYLQMNSLKPEDTAVYYCAAQWPKSKYGYWGQGTQVTVSS | high polyreactivity |
| QVQLEESGGGLFQAGGSLRLSCAASGSTFYAYAMGWYRQAPGKERELVAAISSDGTNYADSVKGRFTISRDNAKNTVYLQMNSLKPEDTAVYYCAADMLLYSSQDNDYWGQGTLVTVSS | low polyreactivity |
| QDQLVESGGGLVQAGGRLRLTCAASGAIFSNYAMGWYRQAPGKERELLAAITNGVSTNYAVSVKGRLTISRDNAKNTVFLQMNSLKPEDTAVYYCAAVGYRATYRVGGYLRYYYWGQGTQVTVSS | high polyreactivity |
| QVQLVESGGGLVQAGGSLRLSCAASGRIFRWSVRGWYRQAPGKERELVAAISYGSGSTYYADSVKGRFTISRDNAKNTVYLQMNSLKPEDTAVYYCAADSQAARYHAYDYWGQGTQVTVSS | high polyreactivity |
| QVQLVESGGGLVQAGGTLRLSCAASGSTFLTNAMGWNRPAPGKERELVAAIRTSGGSTYYADSVKGRFTISRDNAKNTFYVLMNSLKPEDTAVYYCAASYLRRRFSEYYYWGQGTQVTVSS | high polyreactivity |
| QVQLVESGGGLVQAGGSLRLSCAASGRIFIGNAMGWYRQAPGKERELVAAISKRGGSTYYADSVKGRFTISRDNAKNTVYLQMNSLKPVDTAVYYCAVDGYVGVADYEYDNWGQGTQVTVSS | low polyreactivity |
| QVQLVDSGGGLVQAGASLRLSCAASGSTFSSNVMGWYRQAPGKERELVAAITKTGGLTYYADSVKGRFTISRDNAKNTVYLNMNSLKPEDTSVYYCAAKSKRRGTTSVYYYWGQGTQVTVSS | high polyreactivity |
| QVQLVESGGGLVQAGGSLRLSCAASGRIFYDNAMGWYRQAPGKERELVAAISYSGDSTYYADSVKGRFTISRDNAKNTVYLQMNSLKPEDTAVYYCAAVYISQGAFAYDYWGQGTQVTVSS | low polyreactivity |
| QVQLVESGGGLVQAGGSLRLSCAASGYIFRSYVMGWYRQAPGKERELVAAISVSGGRTYYADSVKGRFTMSRDNAKNTVYLQMNSLIPEDTAVYYCAAYLGRRGQEMDYWGQGTQVTVSS | high polyreactivity |
| QVQLVESGGGLVQARGSLRLSCAASGSIFPPYAMGWYRQAPGKERELVAAINSGGSTNYADSVKGRFTISRDNAKNTVYLQMNSLKAEDTAVYYCAAEVVYPVYEYDYWGQGTQVTVSS | low polyreactivity |
| QVQLVESGGGLVQARGSLRLICAASGRTINGYVMGWYRPAPGKEREFVAVINWSGGNTYYADSVKGRFTISRDNAKNTLYLQMNSLKPEDTAVYDCAARRVRSYAYDYWGQGTEVTVSS | high polyreactivity |
| QVQLVESGGGLVQAGGSLRLSCAASGSIFKKYAMGWYRQAPGKERELVAAIRSSGGSTYYADSVKGRFTISRDNAKNTVYLQMNSLKPEDTAVYYCAAYVPQGYKLYYWGQGTQVSVSS | high polyreactivity |
| QVQLVESGGGLVQEGGSLRLSCAASGLIFGAYALGWYRQAPGKERELVAAISGRGGSTYYADSVKGRFTISHDNAKNTVYLQMNSLKPEDNAVYYCAAPWRYTYYYWGQGTQVTVSS | high polyreactivity |
| QVQLVDSGGGLVQAGGSLRLSCAASGSTFDRNGMGWYRQAPGKERELVAAITRGGSTYYADSVKGRFTISRDNAKNTVYLQMNSLKPEDTAVYYCAKRYRGGYYYPYNYWGQGTQVTVSS | high polyreactivity |

| Sequence | polyreactivity (PSR sort gate) |
| --- | --- |
| QVQLVESGGGLVQAGGSLRLSCAASGRILFGNMGWYRQAHGKERELVAAISRGTGSTDYADSVKGRFTISRDNAKNTVYLQMNSLKPEDTAVYYCYARSYRVHLHYWRKWEYDYWGQGTQVTVSS | high polyreactivity |
| QVQLVESGGGLVQAGGSLRLSCAASGSIFKLYSMGWSRQAPGKERELVATIRWSGGSTYYADSVKGRFTISRDNAKNTVYLQMNSLKPEDTAVYYCAARRVRPNGYTSSPLDYWGQGTQVTVSS | high polyreactivity |
| QVQLVESVGGLVQAGGSLRLSCAASGRIFGYNDMGWYRQEPGKERELVAVISTSGTITYYADSVKGRFTISRDNAKNTVYLQMNSLKPEDTAVYNCAAGSYSRYLYSLYFDFDYWGQGTQVTVSS | low polyreactivity |
| QVQLVESGGGLVQAGGSHRLSCAASGRIFQRNTMGWYRQAPGKERELVARINYSGGSTYYADSVKGRFTISRDNAKNTVYLQMNSLKPEDTAVYYCAARVWTWSIYYRAGLSSYDYWGQGTQVTVSS | low polyreactivity |
| QVQLVESGGGLVQAGGSLRLSCAASGSIDNIYAMGWYRQAPGKERELVATITGIADSTYYADSVKGRFTISRDNAKNTVFLQMNSLKPEDTAVYYCAADKYVAEYDYWGQGTQVTVSS | low polyreactivity |
| QVQLVESGGGLVQAGGSLRLSCAASGFTFERNTMGWYRQAPGKERELVATITRRGTSTYYADSVKGRFTISRDNAKNTVYLQMNSLKPEDTAVYYCARGQYSHRSQAGMDYWGQGTQVTVSS | high polyreactivity |
| QVQLVESGGGLVQAGGSLRLSCAASGSIFVFYAMGWYRQAPGKERELVAAIDVSDGSTYYADSVKGRFTISRDNAKNTVYLQMNSLKPEDTAVYYCATYVVTYYWWYTYDYWGQGTQVTVSS | low polyreactivity |
| QVQLVESGGGLVQAGGSLRLSCAASGRTFSGNTMVWYRQAPGKERELVAAITGRGGSTYYADSVKGRFTISRDNAKNTVYLQMNSKKPEDTAVYYCAALRYTFAGRFDYWGQGTQVTVSS | high polyreactivity |
| QVQLVESGGGLVQAGGSLRLSCAASGSTFVINAMGWYRQAPGKERELVADIDYRGGSTNYADSVKGRFTISRDNAKNTVYLLMNSLKPEDTAVYYCNKRYVIRRRGYDYWGQGTQVTVSS | low polyreactivity |
| QVQLVESGGGLVQAGGSLRLSCAASGRIFDRNAMGWYRQATGKERELVARIDPGDDTNYADSVKGRFTISRDNAKNTVYLLMNSLKPEDTAVYYCATDPDYVLYRTAYYEYDYWGHGTQVTVSS | low polyreactivity |
| QVQLVESGGGLVQAGGSLRLSCAASGFIFVYYAMVWYRQAPGKERELVAAITLRGGSTNYADSVKGRFTISRDNAKNTVYLQMNSRKPEDTAVYYCAAYSVWGGSYLALDYWGQGTQVTVSS | low polyreactivity |
| QVQLVETGGGLVQAGGSLRLSCAASFRSNTMGGYRQAPRKERELVAAISGSGSRTYYADSVKGRFTISRDNAKKTVYLQMNSLKPEDTAVYYCAALSYRNSEVGTSRGDYWGQGTQVTVSS | high polyreactivity |
| QVQLVESGVGLVQAGGSLRLSCAASGSNFNTYTMGRYRQAPGKERELVAAITWSGGRTYYADSVKGRFTISRDNAKNTVYLQMNSLKPEDTAGYYCAADWGEDYTRDDYWGQGTQVTVSS | low polyreactivity |
| QVQLVESGGGLVQAGGSLRLSCAASGSTLVIYAMGWYRQAPVKEREFVAAIRCSPGRTYYADSVKGRFTISRDNAKNSVYLQMNSLKPEDTAVYYCAVEYQSWKGWWFDYWGQGTQLTVSS | high polyreactivity |
| QVQLVESGGGLVQAGGSLRLSCAASGRIFVYYAMGWYRQAPGKERELVASISYSGASTYYADSVKGRFTISRDNAKNTVYLQMNSLKPEDTAVYYCNTDGDDFFHVIYDYWGQGTQVTVSS | low polyreactivity |
| QVQLVESGGGLVQAGGSLRLSCAASGGTFFSYTKGWYRQAPGKERELVAAITWSGASTYYADSVKGRFTISRDNAKNTVYIQMNSLKPEDTAVYYCAADSYDSPGYLTTSTYRLDYWGQGTHVTVSS | low polyreactivity |
| QVQLVESGGGIVQAGGSLRLSCAASGIIFQTYAKGWYRQAPGKERELVAAISRSGGSTYYADSVKGRFTISRENSKNTVYLQMNSLKPEDTAVYYCAAYGYNVNWLKGIYWGQGTQVTVSS | high polyreactivity |
| QVQLVESGGGIVQAGGSLRLSCAASGSTFPHNAMGWYRQAPGKERQLVAALSVGGGSTHYADSVKGRFTISRDNAKNTVYLQMNSLKPEDTAVYYCAKDYAYQYSFVTYDYWGQGTQVTVSS | low polyreactivity |
| QVQLVESGGGLVQAGGSLRLSCAASGIIFRSNAMGWYRQAPGKERELVAAISWSGSSTYYADSVKGRFTISRDNAKKTVYLQMNSLKPEDTAVYYCAAYDFYGIYWGQGTQVTVSS | low polyreactivity |
| QVQLVESGGGLVHAGGSLRLSCAAYGRTFYTYAMGWYSQAPGKVRELVAAISSSGSTYYADSVKGRFTISRDNAKYTVYLQMNSLKPEDTAVYYCNARTSRYRRGGDSWGQGTQVTVSS | high polyreactivity |
| QVQLVESGGGLVQAGGSLRLSCAASGLIYSYNAMGWTRQAPGKERELVAAISRSGGTPYYADSVKGRFTISRDNANNTVYLQMNSLKPEDTEVYYCAAEIRFLSWEYDYWGQGTQVSVSS | high polyreactivity |
